Here are results for two substances from PMC3264624.

Holding throughout (assay): FRET or BRET; FLIM-FRET, Cerulean (donor) and mOrange (acceptor) fusions co-expressed in N. benthamiana leaves, two days post infiltration; Cerulean fluorescence lifetime, multiphoton excitation at 810 nm
(In BRET a luciferase serves as donor, and the signal depends on an acceptor being close.)

Assay [1] concerns the target NFR1:Cerulean (Lotus japonicus) (UniProt Q70KR8).
In assay [2] the target is LjSYMREM1:mOrange (full length) (Lotus japonicus).
Assay [3] addresses LjSYMREM1C:mOrange (Lotus japonicus).

UniProt Q70KR8, sequence (Q70KR8 entry or part of it): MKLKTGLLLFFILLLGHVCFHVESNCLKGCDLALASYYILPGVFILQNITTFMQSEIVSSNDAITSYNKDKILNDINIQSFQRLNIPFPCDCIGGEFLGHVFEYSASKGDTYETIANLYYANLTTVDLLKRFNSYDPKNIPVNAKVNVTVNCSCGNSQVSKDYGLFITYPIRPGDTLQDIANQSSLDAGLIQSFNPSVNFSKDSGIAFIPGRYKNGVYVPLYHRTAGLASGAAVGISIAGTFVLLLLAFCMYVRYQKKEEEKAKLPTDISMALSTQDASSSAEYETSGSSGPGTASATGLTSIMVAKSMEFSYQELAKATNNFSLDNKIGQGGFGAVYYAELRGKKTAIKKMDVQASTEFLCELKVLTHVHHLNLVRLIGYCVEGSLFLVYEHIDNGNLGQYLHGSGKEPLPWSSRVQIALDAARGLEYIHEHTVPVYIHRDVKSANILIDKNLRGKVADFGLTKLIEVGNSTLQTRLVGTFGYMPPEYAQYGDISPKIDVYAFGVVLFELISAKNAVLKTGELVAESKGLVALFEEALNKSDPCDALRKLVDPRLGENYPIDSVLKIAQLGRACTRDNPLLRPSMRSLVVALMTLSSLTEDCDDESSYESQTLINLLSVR

On to LjSYMREM1N:mOrange (domain or fragment), for which, in assay [1], the Cerulean fluorescence lifetime came to 2.09 ns and the FRET efficiency was found to be 4.1%.

For “NFR1:Cerulean (from UniProt Q70KR8 1-621) (receptor)”, in assay [2], the Cerulean fluorescence lifetime was 1.99 ns and the FRET efficiency was 8.8%. In assay [3], this substance registered a Cerulean fluorescence lifetime of 1.97 ns and an FRET efficiency of 9.6%.
